We go through two substances from patent publication US11708609.

This data set has as its target human recombinant FOXO1 (Origene #TP300477) (UniProt Q12778).

human recombinant FOXO1 (Origene #TP300477), sequence (Q12778 whole entry): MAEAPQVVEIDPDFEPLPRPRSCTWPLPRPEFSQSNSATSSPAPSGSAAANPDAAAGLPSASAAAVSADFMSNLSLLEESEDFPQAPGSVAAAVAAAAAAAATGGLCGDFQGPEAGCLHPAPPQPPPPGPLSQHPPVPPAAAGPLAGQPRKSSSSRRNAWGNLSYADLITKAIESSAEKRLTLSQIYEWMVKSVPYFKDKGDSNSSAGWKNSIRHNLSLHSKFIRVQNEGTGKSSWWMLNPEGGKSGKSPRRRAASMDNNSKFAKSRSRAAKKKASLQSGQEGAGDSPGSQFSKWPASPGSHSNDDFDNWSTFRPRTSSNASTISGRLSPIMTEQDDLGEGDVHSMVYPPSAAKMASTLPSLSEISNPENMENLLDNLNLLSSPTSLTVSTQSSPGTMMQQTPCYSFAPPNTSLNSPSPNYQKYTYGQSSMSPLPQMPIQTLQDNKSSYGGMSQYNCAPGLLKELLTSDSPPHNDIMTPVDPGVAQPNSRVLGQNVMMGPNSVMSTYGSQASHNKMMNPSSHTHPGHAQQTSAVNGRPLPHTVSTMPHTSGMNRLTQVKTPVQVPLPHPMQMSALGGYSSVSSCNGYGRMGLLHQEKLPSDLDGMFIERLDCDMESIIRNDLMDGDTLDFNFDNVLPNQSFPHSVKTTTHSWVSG
microtubule-associated Ser/Thr kinase 4 (MAST4), immunoprecipitated from lysates of neuron-differentiated SH-SY5Y cells or of human temporal lobe autopsy samples, sequence (chain, as listed by the source): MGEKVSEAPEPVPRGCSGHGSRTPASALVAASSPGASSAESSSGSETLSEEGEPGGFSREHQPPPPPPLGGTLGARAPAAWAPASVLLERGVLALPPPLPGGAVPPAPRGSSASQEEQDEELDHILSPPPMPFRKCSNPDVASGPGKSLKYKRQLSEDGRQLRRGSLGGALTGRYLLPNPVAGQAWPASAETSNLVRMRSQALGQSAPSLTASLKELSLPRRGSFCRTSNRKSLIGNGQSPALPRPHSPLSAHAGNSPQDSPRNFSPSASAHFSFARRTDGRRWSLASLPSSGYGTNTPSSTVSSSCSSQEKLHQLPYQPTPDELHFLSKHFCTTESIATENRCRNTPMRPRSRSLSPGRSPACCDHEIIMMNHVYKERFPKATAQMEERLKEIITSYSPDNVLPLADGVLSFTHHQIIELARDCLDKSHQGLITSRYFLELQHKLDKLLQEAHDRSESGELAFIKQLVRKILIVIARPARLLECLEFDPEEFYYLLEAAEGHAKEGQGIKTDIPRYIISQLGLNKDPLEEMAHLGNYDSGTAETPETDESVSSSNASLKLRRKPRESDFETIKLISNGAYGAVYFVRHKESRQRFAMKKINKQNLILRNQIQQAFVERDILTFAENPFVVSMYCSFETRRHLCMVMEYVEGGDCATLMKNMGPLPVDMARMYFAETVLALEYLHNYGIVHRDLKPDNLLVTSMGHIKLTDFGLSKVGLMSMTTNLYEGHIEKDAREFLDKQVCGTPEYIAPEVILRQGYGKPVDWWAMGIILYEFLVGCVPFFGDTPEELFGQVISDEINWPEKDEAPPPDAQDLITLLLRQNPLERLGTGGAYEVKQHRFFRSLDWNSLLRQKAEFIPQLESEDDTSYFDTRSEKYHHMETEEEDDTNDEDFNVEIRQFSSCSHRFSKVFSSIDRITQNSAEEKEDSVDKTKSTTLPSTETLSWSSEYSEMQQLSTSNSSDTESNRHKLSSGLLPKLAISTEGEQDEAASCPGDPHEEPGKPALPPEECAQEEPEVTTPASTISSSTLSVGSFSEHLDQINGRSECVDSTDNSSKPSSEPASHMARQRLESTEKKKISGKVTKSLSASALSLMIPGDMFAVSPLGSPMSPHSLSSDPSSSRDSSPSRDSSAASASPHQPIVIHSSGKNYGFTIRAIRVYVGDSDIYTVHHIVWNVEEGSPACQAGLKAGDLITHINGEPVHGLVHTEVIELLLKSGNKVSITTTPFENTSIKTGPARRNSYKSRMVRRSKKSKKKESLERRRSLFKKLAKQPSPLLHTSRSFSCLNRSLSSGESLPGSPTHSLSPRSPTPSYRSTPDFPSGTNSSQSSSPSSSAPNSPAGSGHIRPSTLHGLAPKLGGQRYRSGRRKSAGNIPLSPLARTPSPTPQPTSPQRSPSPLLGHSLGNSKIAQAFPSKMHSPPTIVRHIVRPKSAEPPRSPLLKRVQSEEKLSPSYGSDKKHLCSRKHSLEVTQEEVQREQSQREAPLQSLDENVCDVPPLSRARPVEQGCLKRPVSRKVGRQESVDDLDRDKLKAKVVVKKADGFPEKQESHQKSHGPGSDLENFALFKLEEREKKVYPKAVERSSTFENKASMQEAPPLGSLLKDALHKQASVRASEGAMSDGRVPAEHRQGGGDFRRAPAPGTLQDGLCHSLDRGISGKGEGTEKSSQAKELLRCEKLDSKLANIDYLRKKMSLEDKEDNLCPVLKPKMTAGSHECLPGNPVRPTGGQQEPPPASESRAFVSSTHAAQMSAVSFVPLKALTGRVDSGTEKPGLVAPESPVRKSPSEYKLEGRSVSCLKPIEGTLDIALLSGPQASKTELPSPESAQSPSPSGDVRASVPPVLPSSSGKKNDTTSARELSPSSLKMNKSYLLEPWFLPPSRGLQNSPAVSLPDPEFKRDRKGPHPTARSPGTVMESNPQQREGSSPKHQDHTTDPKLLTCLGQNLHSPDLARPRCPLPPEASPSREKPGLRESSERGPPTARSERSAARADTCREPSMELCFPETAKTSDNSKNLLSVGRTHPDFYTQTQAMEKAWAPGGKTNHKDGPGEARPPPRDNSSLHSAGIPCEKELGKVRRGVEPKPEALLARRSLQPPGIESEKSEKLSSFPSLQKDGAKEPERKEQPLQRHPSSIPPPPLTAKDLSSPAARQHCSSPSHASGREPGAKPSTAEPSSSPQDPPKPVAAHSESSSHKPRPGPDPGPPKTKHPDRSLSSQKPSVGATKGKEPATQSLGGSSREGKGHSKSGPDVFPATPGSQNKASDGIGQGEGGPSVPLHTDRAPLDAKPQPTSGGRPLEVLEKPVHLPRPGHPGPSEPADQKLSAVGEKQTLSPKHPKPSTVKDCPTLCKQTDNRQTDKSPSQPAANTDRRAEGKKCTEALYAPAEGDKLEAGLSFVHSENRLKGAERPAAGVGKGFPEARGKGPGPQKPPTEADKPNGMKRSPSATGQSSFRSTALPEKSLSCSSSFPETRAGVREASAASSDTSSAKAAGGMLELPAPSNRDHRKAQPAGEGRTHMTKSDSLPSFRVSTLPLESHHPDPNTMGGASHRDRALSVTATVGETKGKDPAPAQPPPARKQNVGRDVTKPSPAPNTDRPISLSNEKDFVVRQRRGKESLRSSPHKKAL

As to “microtubule-associated Ser/Thr kinase 4 (MAST4), immunoprecipitated from lysates of neuron-differentiated SH-SY5Y cells or of human temporal lobe autopsy samples”, the “FOXO1 phosphorylation (pSer-FOXO1) in an in vitro kinase assay with immunoprecipitated MAST4 and recombinant FOXO1” value is “Increased FOXO1 phosphorylation was observed in MAST4 immunoprecipitates from cells treated with 5 µM but not 50 µM 27OHC”.

Turning to “MAST4E682A, putative kinase-null MAST4 mutant”, the “FOXO1 phosphorylation in an in vitro kinase assay with immunoprecipitated MAST4 mutant” value is “Immunoprecipitates of MAST4E682A did not phosphorylate FOXO1 (not shown)”.
